Assay results reported in patent US20250144178A1, “PHARMACEUTICAL COMPOSITION FOR CANCER TREATMENT COMPRISING FUSION PROTEIN INCLUDING IL-12 AND ANTI-FAP ANTIBODY AND ANTICANCER AGENT” (KANAPH THERAPEUTICS INC., priority 2022, published 2025).
Blank lines part the entries; values can stand above or below the substance they belong to.

Legend:
[1] = biological target: human FAP (fibroblast activation protein alpha) overexpressed in HEK293 cells (HEK293-hFAP) (human) (UniProt Q12884); assay: flow cytometry on HEK293-hFAP cells, anti-human IgG antibody alone
Chain of human FAP (fibroblast activation protein alpha) overexpressed in HEK293 cells (HEK293-hFAP) (human) (Q12884 whole entry): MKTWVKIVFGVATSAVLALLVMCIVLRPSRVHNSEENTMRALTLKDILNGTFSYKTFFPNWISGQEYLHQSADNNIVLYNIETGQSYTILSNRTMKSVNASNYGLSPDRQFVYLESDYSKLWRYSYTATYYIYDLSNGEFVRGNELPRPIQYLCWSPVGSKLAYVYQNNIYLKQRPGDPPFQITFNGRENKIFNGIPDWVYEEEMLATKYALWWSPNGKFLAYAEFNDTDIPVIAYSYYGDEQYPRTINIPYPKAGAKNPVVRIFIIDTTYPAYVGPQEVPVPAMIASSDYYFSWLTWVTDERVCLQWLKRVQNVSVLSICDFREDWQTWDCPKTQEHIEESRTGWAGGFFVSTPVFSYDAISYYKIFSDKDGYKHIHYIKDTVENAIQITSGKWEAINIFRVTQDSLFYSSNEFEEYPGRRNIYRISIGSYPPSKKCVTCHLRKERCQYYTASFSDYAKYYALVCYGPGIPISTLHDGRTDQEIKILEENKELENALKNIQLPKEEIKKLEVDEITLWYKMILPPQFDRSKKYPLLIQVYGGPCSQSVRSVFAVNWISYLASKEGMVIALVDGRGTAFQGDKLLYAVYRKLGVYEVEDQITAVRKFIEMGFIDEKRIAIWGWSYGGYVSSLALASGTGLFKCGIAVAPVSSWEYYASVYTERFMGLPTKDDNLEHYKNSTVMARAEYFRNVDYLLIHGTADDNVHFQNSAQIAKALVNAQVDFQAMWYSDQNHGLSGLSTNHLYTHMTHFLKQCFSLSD

[2] = biological target: IL-12 receptor of human T cells (human) (UniProt P42701); assay: cell-based or functional assay
Chain of IL-12 receptor of human T cells (human) (Q99665 24-862, chain 2 of 2, other chains not shown): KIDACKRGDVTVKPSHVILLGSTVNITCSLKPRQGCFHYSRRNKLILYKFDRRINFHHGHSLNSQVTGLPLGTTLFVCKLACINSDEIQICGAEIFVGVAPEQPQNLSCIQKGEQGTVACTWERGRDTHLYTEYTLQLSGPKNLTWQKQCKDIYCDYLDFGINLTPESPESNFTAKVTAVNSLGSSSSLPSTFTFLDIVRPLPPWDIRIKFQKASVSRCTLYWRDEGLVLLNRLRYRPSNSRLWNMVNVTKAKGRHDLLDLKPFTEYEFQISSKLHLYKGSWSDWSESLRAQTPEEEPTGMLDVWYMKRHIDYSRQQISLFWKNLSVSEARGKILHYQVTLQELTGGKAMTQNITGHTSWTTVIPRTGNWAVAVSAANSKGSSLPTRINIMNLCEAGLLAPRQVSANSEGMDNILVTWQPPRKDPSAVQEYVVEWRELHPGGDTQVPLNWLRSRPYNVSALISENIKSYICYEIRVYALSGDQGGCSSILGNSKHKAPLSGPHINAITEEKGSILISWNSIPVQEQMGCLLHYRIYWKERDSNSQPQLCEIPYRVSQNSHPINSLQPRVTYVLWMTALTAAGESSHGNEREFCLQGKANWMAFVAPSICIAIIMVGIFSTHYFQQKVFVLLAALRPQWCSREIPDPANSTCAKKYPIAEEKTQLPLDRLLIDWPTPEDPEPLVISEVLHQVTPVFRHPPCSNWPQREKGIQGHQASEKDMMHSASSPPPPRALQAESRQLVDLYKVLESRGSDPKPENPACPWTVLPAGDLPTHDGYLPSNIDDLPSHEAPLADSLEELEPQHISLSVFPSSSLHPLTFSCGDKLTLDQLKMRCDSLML

[3] = biological target: mouse FAP (fibroblast activation protein alpha) overexpressed in B16F10 cells (B16F10-mFAP) (mouse) (UniProt P97321); assay: flow cytometry on B16F10-mFAP cells, anti-mouse IgG2a antibody alone
Chain of mouse FAP (fibroblast activation protein alpha) overexpressed in B16F10 cells (B16F10-mFAP) (mouse) (P97321 whole entry): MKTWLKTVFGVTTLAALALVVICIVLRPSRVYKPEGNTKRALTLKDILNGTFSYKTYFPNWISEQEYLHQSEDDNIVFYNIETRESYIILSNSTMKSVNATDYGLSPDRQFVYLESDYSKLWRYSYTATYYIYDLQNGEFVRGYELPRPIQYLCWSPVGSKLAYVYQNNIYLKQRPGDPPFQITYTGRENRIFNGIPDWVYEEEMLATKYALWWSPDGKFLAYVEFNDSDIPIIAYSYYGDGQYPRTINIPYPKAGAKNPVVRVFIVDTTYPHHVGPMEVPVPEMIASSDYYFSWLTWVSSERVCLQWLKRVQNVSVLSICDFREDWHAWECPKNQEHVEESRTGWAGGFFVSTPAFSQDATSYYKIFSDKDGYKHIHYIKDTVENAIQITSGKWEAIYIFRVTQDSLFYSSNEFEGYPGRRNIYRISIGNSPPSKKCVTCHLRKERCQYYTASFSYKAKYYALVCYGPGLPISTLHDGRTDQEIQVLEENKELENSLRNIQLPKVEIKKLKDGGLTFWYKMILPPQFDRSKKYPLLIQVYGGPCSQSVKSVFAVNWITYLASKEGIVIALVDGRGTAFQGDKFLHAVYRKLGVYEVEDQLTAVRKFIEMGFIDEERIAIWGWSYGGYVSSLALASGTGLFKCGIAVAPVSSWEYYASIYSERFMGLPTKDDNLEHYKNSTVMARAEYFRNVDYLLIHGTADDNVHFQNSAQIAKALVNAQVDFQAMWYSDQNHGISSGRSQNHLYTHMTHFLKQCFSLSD

B16F10 = assay: flow cytometry on parental B16F10 cells, anti-mouse IgG2a antibody alone

percent of cells in the positive gate (hFAP-PE) [1]: 0.16%
Substance: 2nd only (antibody)

half maximal effective concentration (EC50) of p-STAT4 (Tyr693), AlphaLISA, activated human T cells [2]: 8.95 pM
Substance: recombinant human IL-12 (from UniProt P29459 23-219; P29460 23-328) (ligand)

percent of cells in the positive gate (mFAP-PE) [3]: 3.44%
percent of cells in the positive gate (mFAP-PE) (B16F10): 1.04%
Substance: 2nd Ab only (antibody)
